Data from article PMC3561454.

Target: Csk (UniProt P41240)
Experiment: p140Cap IP, Csk western blot
Conditions: reference: wild type, sites Y264,Y396

| binding against the reference (FBS time course) | binding against the reference | Substance |
| --- | --- | --- |
| lost |  | p140Cap (from UniProt Q9C0H9) Y264F/Y396F double mutant, FBS time course |
|  | lost | p140Cap (from UniProt Q9C0H9) Y264F/Y396F double mutant |
